Assays:
[1] = molecular target: human IGF-1R(1-903)-Fc (human) (UniProt P08069); assay: competition ELISA: biotinylated hIGF-1R-Fc on streptavidin plate, antibody titrated in 320 nM human IGF-1 His (blocked ligand), anti-His-HRP detection
[2] = molecular target: human IGF-1R(1-903)-Fc (human) (UniProt P08069); assay: blocking ELISA, competitor 320 nM IGF-1
[3] = molecular target: human IGF-1R(1-903)-Fc (human) (UniProt P08069); assay: blocking ELISA, competitor 640 nM IGF-2

human IGF-1R(1-903)-Fc (human), sequence (P08069 31-933): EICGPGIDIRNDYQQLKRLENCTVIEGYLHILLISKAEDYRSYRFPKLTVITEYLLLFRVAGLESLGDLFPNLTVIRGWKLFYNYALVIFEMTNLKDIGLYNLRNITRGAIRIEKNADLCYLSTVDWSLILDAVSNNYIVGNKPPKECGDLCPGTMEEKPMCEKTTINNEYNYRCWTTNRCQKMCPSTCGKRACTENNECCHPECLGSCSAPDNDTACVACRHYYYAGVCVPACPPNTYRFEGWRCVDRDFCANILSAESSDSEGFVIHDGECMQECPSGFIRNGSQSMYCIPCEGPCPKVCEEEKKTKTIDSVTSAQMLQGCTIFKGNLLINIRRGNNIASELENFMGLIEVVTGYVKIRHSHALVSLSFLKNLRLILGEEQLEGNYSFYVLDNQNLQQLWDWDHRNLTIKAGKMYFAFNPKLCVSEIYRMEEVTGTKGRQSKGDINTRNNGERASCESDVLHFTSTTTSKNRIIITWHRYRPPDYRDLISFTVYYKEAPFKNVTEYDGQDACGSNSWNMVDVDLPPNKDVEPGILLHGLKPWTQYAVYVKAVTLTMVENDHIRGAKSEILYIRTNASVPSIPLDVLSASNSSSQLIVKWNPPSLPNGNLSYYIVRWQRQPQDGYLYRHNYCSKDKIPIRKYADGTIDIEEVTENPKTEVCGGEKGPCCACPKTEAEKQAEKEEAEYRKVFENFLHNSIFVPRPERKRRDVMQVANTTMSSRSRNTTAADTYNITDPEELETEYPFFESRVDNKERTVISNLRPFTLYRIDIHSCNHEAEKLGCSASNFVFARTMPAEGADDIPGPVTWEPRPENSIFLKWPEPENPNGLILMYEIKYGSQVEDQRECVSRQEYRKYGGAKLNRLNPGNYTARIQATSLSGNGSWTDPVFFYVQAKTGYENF

## αIR3 (antibody)
[1]
  IC50 (read off the curve): 4 nM
[2]
  % IGF-1 inhibition upon antibody saturation: 23%
[3]
  % IGF-2 inhibition upon antibody saturation: 60%

Reference: US20090092614A1
